Tested on: Bacillus subtilis
Test: cleaved RNA product abundance (RNA/gDNA barcode ratio) relative to median wild-type variant (ratio to wild type); higher = more accumulation of the downstream cleavage product
Conditions: cleavage site: cggR-gapA (positions -7 to +36 mutated)
In short: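 Truncated aprE or tetM reporter mRNAs with barcoded RNase Y cleavage-site windows, mutagenized from oligos at a 9% error rate, sat in the B. subtilis chromosome. Cells grew in LB at 37°C from OD600 0.0003 to 0.3. Gel-selected cleaved RNA was reverse transcribed and its barcodes sequenced with those from genomic DNA, collapsing by UMI. Cleaved product abundance equals the RNA:gDNA barcode ratio per construct over the median construct with the unmutated site.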

[1] = experiment (reporter, strain, medium): exp 4a: truncated aprE reporter, strain BJT201 with 2% xylose (RNase J1 expressed)
[2] = experiment (reporter, strain, medium): exp 2b: truncated aprE reporter, strain BJT200
[3] = experiment (reporter, strain, medium): exp 6: tetM reporter, strain 168

## ACAGACGAAGGAGCCGCAAAGAAGTTATTAAGGGATAAATAATCCCTCAACATAAATATCTCTCACTTATTTAAA
[1]
  cleaved RNA product abundance: 0.251

## ACAGACGAAGGAGCCGCAAAGAAGTTATTAAGGGATAAATAATCCCTCAAGATAAATATCTCTCACTTATTTAAA
[2]
  cleaved RNA product abundance: 0.18
[1]
  cleaved RNA product abundance: 0.29

## ACAGACGAAGGAGCCGCAAAGAAGTTATTAAGGGATAAATAATCCCTCAATAAAAATATCTCTCACTTATTTAAA
[3]
  cleaved RNA product abundance: 0.148

## ACAGACGAAGGAGCCGCAAAGAAGTTATTAAGGGATAAATAATCCCTCAATATAAAAATCTCTCACTTATTTAAA
[1]
  cleaved RNA product abundance: 0.943

## ACAGACGAAGGAGCCGCAAAGAAGTTATTAAGGGATAAATAATCCCTCAATATAAAGATCTCTCACTTATTTAAA
[2]
  cleaved RNA product abundance: 0.482
[1]
  cleaved RNA product abundance: 0.505

## ACAGACGAAGGAGCCGCAAAGAAGTTATTAAGGGATAAATAATCCCTCAATATAAATAACTCTCACTTATTTAAA
[1]
  cleaved RNA product abundance: 0.823

## ACAGACGAAGGAGCCGCAAAGAAGTTATTAAGGGATAAATAATCCCTCAATATAAATAGCTCTCACTTATTTAAA
[1]
  cleaved RNA product abundance: 0.553

## ACAGACGAAGGAGCCGCAAAGAAGTTATTAAGGGATAAATAATCCCTCAATATAAATATCTCTCACTTATTTAAA
[2]
  cleaved RNA product abundance: 0.898
[1]
  cleaved RNA product abundance: 0.872
[3]
  cleaved RNA product abundance: 0.954

## ACAGACGAAGGAGCCGCAAAGAAGTTATTAAGGGATAAATAATCCCTCAATATAAATCTCTCTCACTTATTTAAA
[2]
  cleaved RNA product abundance: 0.559
[1]
  cleaved RNA product abundance: 0.65

## ACAGACGAAGGAGCCGCAAAGAAGTTATTAAGGGATAAATAATCCCTCAATATAAATGTCTCTCACTTATTTAAA
[2]
  cleaved RNA product abundance: 0.46
[1]
  cleaved RNA product abundance: 0.539

## ACAGACGAAGGAGCCGCAAAGAAGTTATTAAGGGATAAATAATCCCTCAATATAAATTTCTCTCACTTATTTAAA
[1]
  cleaved RNA product abundance: 0.368

## ACAGACGAAGGAGCCGCAAAGAAGTTATTAAGGGATAAATAATCCCTCAATATAACTATCTCTCACTTATTTAAA
[1]
  cleaved RNA product abundance: 0.156

## ACAGACGAAGGAGCCGCAAAGAAGTTATTAAGGGATAAATAATCCCTCAATATAATTATCTCTCACTTATTTAAA
[2]
  cleaved RNA product abundance: 0.507
[1]
  cleaved RNA product abundance: 0.532

## ACAGACGAAGGAGCCGCAAAGAAGTTATTAAGGGATAAATAATCCCTCAATATACATATCTCTCACTTATTTAAA
[1]
  cleaved RNA product abundance: 0.699

## ACAGACGAAGGAGCCGCAAAGAAGTTATTAAGGGATAAATAATCCCTCAATATAGATATCTCTCACTTATTTAAA
[2]
  cleaved RNA product abundance: 0.638
[1]
  cleaved RNA product abundance: 1.02

## ACAGACGAAGGAGCCGCAAAGAAGTTATTAAGGGATAAATAATCCCTCAATATATATATCTCTCACTTATTTAAA
[1]
  cleaved RNA product abundance: 0.916

## ACAGACGAAGGAGCCGCAAAGAAGTTATTAAGGGATAAATAATCCCTCAATTTAAATATCTCTCACTTATTTAAA
[1]
  cleaved RNA product abundance: 0.167

## ACAGACGAAGGAGCCGCAAAGAAGTTATTAAGGGATAAATAATCCCTCACTATAAATATCTCTCACTTATTTAAA
[2]
  cleaved RNA product abundance: 0.247
[1]
  cleaved RNA product abundance: 0.193

## ACAGACGAAGGAGCCGCAAAGAAGTTATTAAGGGATAAATAATCCCTCAGTATAAATATCTCTCACTTATTTAAA
[1]
  cleaved RNA product abundance: 0.242

## ACAGACGAAGGAGCCGCAAAGAAGTTATTAAGGGATAAATAATCCCTCATTATAAATATCTCTCACTTATTTAAA
[1]
  cleaved RNA product abundance: 0.267

## ACAGACGAAGGAGCCGCAAAGAAGTTATTAAGGGATAAATAATCCCTCCATATAAATATCTCTCACTTATTTAAA
[2]
  cleaved RNA product abundance: 0.26
[1]
  cleaved RNA product abundance: 0.234

## ACAGACGAAGGAGCCGCAAAGAAGTTATTAAGGGATAAATAATCCCTCGATATAAATATCTCTCACTTATTTAAA
[1]
  cleaved RNA product abundance: 0.433

## ACAGACGAAGGAGCCGCAAAGAAGTTATTAAGGGATAAATAATCCCTCTATATAAATATCTCTCACTTATTTAAA
[2]
  cleaved RNA product abundance: 0.396
[1]
  cleaved RNA product abundance: 0.326

## ACAGACGAAGGAGCCGCAAAGAAGTTATTAAGGGATAAATAATCCCTGAATATAAATATCTCTCACTTATTTAAA
[1]
  cleaved RNA product abundance: 0.734

## ACAGACGAAGGAGCCGCAAAGAAGTTATTAAGGGATAAATAATCCCTTAATATAAATATCTCTCACTTATTTAAA
[2]
  cleaved RNA product abundance: 0.71
[1]
  cleaved RNA product abundance: 0.48

## ACAGACGAAGGAGCCGCAAAGAAGTTATTAAGGGATAAATAATCCGTCAATATAAATATCTCTCACTTATTTAAA
[2]
  cleaved RNA product abundance: 0.132
[1]
  cleaved RNA product abundance: 0.166

## ACAGACGAAGGAGCCGCAAAGAAGTTATTAAGGGATAAATAATCCTTCAATATAAATATCTCTCACTTATTTAAA
[2]
  cleaved RNA product abundance: 0.303
[1]
  cleaved RNA product abundance: 0.338

## ACAGACGAAGGAGCCGCAAAGAAGTTATTAAGGGATAAATAATCGCTCAATATAAATATCTCTCACTTATTTAAA
[1]
  cleaved RNA product abundance: 0.0974

## ACAGACGAAGGAGCCGCAAAGAAGTTATTAAGGGATAAATAATCTCTCAATATAAATATCTCTCACTTATTTAAA
[1]
  cleaved RNA product abundance: 0.355

## ACAGACGAAGGAGCCGCAAAGAAGTTATTAAGGGATAAATAATGCCTCAATATAAATATCTCTCACTTATTTAAA
[1]
  cleaved RNA product abundance: 0.0991

## ACAGACGAAGGAGCCGCAAAGAAGTTATTAAGGGATAAATAATTCCTCAATATAAATATCTCTCACTTATTTAAA
[1]
  cleaved RNA product abundance: 0.294

## ACAGACGAAGGAGCCGCAAAGAAGTTATTAAGGGATAAATACTCCCTCAATATAAATATCTCTCACTTATTTAAA
[2]
  cleaved RNA product abundance: 0.674
[1]
  cleaved RNA product abundance: 0.534

## ACAGACGAAGGAGCCGCAAAGAAGTTATTAAGGGATAAATATTCCCTCAATATAAATATCTCTCACTTATTTAAA
[2]
  cleaved RNA product abundance: 0.755
[1]
  cleaved RNA product abundance: 1.01

## ACAGACGAAGGAGCCGCAAAGAAGTTATTAAGGGATAAATCATCCCTCAATATAAATATCTCTCACTTATTTAAA
[1]
  cleaved RNA product abundance: 0.818

## ACAGACGAAGGAGCCGCAAAGAAGTTATTAAGGGATAAATGATCCCTCAATATAAATATCTCTCACTTATTTAAA
[1]
  cleaved RNA product abundance: 0.455

## ACAGACGAAGGAGCCGCAAAGAAGTTATTAAGGGATAAATTATCCCTCAATATAAATATCTCTCACTTATTTAAA
[2]
  cleaved RNA product abundance: 1.07
[1]
  cleaved RNA product abundance: 1.03

## ACAGACGAAGGAGCCGCAAAGAAGTTATTAAGGGATAACTAATCCCTCAATATAAATATCTCTCACTTATTTAAA
[1]
  cleaved RNA product abundance: 0.57

## ACAGACGAAGGAGCCGCAAAGAAGTTATTAAGGGATAAGTAATCCCTCAATATAAATATCTCTCACTTATTTAAA
[2]
  cleaved RNA product abundance: 0.555
[1]
  cleaved RNA product abundance: 0.785

## ACAGACGAAGGAGCCGCAAAGAAGTTATTAAGGGATAATTAATCCCTCAATATAAATATCTCTCACTTATTTAAA
[2]
  cleaved RNA product abundance: 1.13
[1]
  cleaved RNA product abundance: 0.759

## ACAGACGAAGGAGCCGCAAAGAAGTTATTAAGGGATAGATAATCCCTCAATATAAATATCTCTCACTTATTTAAA
[1]
  cleaved RNA product abundance: 0.791

## ACAGACGAAGGAGCCGCAAAGAAGTTATTAAGGGATATATAATCCCTCAATATAAATATCTCTCACTTATTTAAA
[1]
  cleaved RNA product abundance: 0.738

## ACAGACGAAGGAGCCGCAAAGAAGTTATTAAGGGATCAAAAATCCCTCAATATAAATATCTCTCACTTATTTAAA
[2]
  cleaved RNA product abundance: 0.804
[1]
  cleaved RNA product abundance: 1.17

## ACAGACGAAGGAGCCGCAAAGAAGTTATTAAGGGATCAACAATCCCTCAATATAAATATCTCTCACTTATTTAAA
[2]
  cleaved RNA product abundance: 1
[1]
  cleaved RNA product abundance: 0.962

## ACAGACGAAGGAGCCGCAAAGAAGTTATTAAGGGATCAATAAACCCTCAATATAAATATCTCTCACTTATTTAAA
[2]
  cleaved RNA product abundance: 0.518
[1]
  cleaved RNA product abundance: 0.429

## ACAGACGAAGGAGCCGCAAAGAAGTTATTAAGGGATCAATAACCCCTCAATATAAATATCTCTCACTTATTTAAA
[1]
  cleaved RNA product abundance: 0.561

## ACAGACGAAGGAGCCGCAAAGAAGTTATTAAGGGATCAATAATACCTAAATATAAATATCTCTCACTTATTTAAA
[1]
  cleaved RNA product abundance: 0.0917

## ACAGACGAAGGAGCCGCAAAGAAGTTATTAAGGGATCAATAATACCTCAATATAAATATCTCTCACTTATTTAAA
[1]
  cleaved RNA product abundance: 0.146

## ACAGACGAAGGAGCCGCAAAGAAGTTATTAAGGGATCAATAATCACTCAATATAAATATCTCTCACTTATTTAAA
[2]
  cleaved RNA product abundance: 0.0917
[1]
  cleaved RNA product abundance: 0.0833

## ACAGACGAAGGAGCCGCAAAGAAGTTATTAAGGGATCAATAATCCATCAATATAAATATCTCTCACTTATTTAAA
[1]
  cleaved RNA product abundance: 0.312

## ACAGACGAAGGAGCCGCAAAGAAGTTATTAAGGGATCAATAATCCCACAATATAAATATCTCTCACTTATTTAAA
[2]
  cleaved RNA product abundance: 0.192
[1]
  cleaved RNA product abundance: 0.208

## ACAGACGAAGGAGCCGCAAAGAAGTTATTAAGGGATCAATAATCCCTAAATATAAATATCTCTCACTTATTTAAA
[2]
  cleaved RNA product abundance: 0.551
[1]
  cleaved RNA product abundance: 0.657

## ACAGACGAAGGAGCCGCAAAGAAGTTATTAAGGGATCAATAATCCCTCAAAATAAATATCTCTCACTTATTTAAA
[2]
  cleaved RNA product abundance: 0.214
[1]
  cleaved RNA product abundance: 0.315

## ACAGACGAAGGAGCCGCAAAGAAGTTATTAAGGGATCAATAATCCCTCAACATAAATATCTCTCACTTATTTAAA
[1]
  cleaved RNA product abundance: 0.258

## ACAGACGAAGGAGCCGCAAAGAAGTTATTAAGGGATCAATAATCCCTCAATATAAATAACTCTCACTTATTTAAA
[1]
  cleaved RNA product abundance: 0.687

## ACAGACGAAGGAGCCGCAAAGAAGTTATTAAGGGATCAATAATCCCTCAATATAAATACCTCTCACTTATTTAAA
[2]
  cleaved RNA product abundance: 0.479
[1]
  cleaved RNA product abundance: 0.36

## ACAGACGAAGGAGCCGCAAAGAAGTTATTAAGGGATCAATAATCCCTCAATATAAATATCTCTCACTTATTTAAA
[2]
  cleaved RNA product abundance: 0.832
[1]
  cleaved RNA product abundance: 0.878
[3]
  cleaved RNA product abundance: 0.996

## ACAGACGAAGGAGCCGCAAAGAAGTTATTAAGGGATCAATAATCCCTCAATATAAATCTCTCTCACTTATTTAAA
[1]
  cleaved RNA product abundance: 0.706

## ACAGACGAAGGAGCCGCAAAGAAGTTATTAAGGGATCAATAATCCCTCAATATAAATTTCTCTCACTTATTTAAA
[1]
  cleaved RNA product abundance: 0.645

Reference: the supplement of paper PMC11780869
